Laboratory results published in patent US20200024330A1.

Legend:
Test in all cases: cell-based or functional assay
[1] = molecular target: HIV-1 Env of isolate MGRM-F1-022 (subtype F), on pseudovirus (HIV-1)
[2] = molecular target: HIV-1 Env of isolate MGRM-D-005 (HIV-1)
[3] = molecular target: HIV-1 Env of isolate MGRM-F1-016 (subtype F), on pseudovirus (HIV-1)
[4] = molecular target: HIV-1 Env of isolate MGRM-D-002 (HIV-1)
[5] = molecular target: HIV-1 Env of isolate MGRM-AG-012 (CRF_AG), on pseudovirus (HIV-1)
[6] = molecular target: HIV-1 Env of isolate MGRM-AG-001 (CRF_AG), on pseudovirus (HIV-1)
[7] = molecular target: HIV-1 Env of isolate MGRM-C-007 (HIV-1)
[8] = molecular target: HIV-1 Env of isolate 93TH305 (pseudovirus) (HIV-1 isolate 93TH305, subtype B)
[9] = molecular target: HIV-1 Env of isolate MGRM-C-017 (HIV-1)
[10] = molecular target: HIV-1 Env of isolate MGRM-D-014 (HIV-1)
[11] = molecular target: HIV-1 JR-CSF Env R476A (HIV-1 (isolate JR-CSF)) (UniProt P20871)
[12] = molecular target: HIV-1 JR-CSF Env V120A (HIV-1 (isolate JR-CSF)) (UniProt P20871)
[13] = molecular target: HIV-1 JR-CSF Env N478A (HIV-1 (isolate JR-CSF)) (UniProt P20871)
[14] = molecular target: HIV-1 Env of isolate MGRM-C-001 (pseudovirus) (HIV-1 isolate MGRM-C-001, subtype C)
[15] = molecular target: HIV-1 VLGCB3 Env (pseudovirus) (HIV-1)
[16] = molecular target: HIV-1 Env of isolate MGRM-F1-013 (HIV-1)
[17] = molecular target: HIV-1 Env of isolate MG RM-D-011 (subtype D) (HIV-1)
[18] = molecular target: HIV-1 Env of isolate MG RM-D-028 (subtype D) (HIV-1)
[19] = molecular target: HIV-1 Env of isolate 92UG001 (subtype D) (HIV-1)
[20] = molecular target: HIV-1 MGRM-D-018 envelope glycoprotein (Env) on pseudovirus (HIV-1)
[21] = molecular target: HIV-1 Env of isolate 92UG005 (clade D) (HIV-1)
[22] = molecular target: HIV-1 Env of isolate MGRM-D-001 (clade D) (HIV-1)

5329_C19 (PGT-136) (antibody), sequence (VH): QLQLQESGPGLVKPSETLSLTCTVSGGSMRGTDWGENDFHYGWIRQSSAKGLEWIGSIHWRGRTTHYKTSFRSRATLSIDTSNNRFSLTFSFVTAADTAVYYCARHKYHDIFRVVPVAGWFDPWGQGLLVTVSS
5329_C19 (PGT-136) (antibody), sequence (VL): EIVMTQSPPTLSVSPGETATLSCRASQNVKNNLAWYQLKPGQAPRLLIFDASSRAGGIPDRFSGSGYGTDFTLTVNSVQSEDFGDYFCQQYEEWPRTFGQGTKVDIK
5345_I01 (PGT-137) (antibody), sequence (VH): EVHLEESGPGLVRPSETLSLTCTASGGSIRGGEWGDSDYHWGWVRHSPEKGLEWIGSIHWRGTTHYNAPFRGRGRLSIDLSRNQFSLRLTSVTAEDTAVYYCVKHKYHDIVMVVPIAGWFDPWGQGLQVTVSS
5345_I01 (PGT-137) (antibody), sequence (VL): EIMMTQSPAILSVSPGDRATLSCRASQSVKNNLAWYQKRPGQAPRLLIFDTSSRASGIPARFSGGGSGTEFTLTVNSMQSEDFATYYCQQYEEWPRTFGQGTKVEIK

Row | Substance | IC50, pseudovirus neutralization [1] [µg/mL] | IC50 [2] [µg/mL] | IC50, pseudovirus neutralization [3] [µg/mL] | IC50 [4] [µg/mL] | IC50, single-round pseudovirus neutralization [5] [µg/mL] | IC50, single-round pseudovirus neutralization [6] [µg/mL] | IC50 [7] [µg/mL] | IC50 (µg/mL) neutralization [8] [µg/mL] | IC50 [9] [µg/mL] | IC50 [10] [µg/mL] | Fold IC50 increase relative to wild-type [11] [fold] | Fold IC50 increase relative to wild-type [12] [fold] | Fold IC50 increase relative to wild-type [13] [fold] | IC50 (µg/mL) neutralization [14] [µg/mL] | IC50, pseudovirus neutralization [15] [µg/mL] | IC50 [16] [µg/mL] | IC50 (µg/mL), pseudovirus neutralization [17] [µg/mL] | IC50 (µg/mL), pseudovirus neutralization [18] [µg/mL] | IC50 (µg/mL), pseudovirus neutralization [19] [µg/mL] | IC50 (ug/ml), neutralizing activity [20] [µg/mL] | also measured
1 | 5329_C19 (PGT-136) (antibody) | 2.42 | > 50 | > 50 | > 50 | > 50 | > 50 | > 50 | 20.2 | > 50 | > 50 |  |  |  |  |  |  |  |  |  |  | 
2 | 5136_H01 (PGT-131) (antibody) | > 50 | > 50 | > 50 | 11.2 | > 50 | > 50 | > 50 | 0.016 | > 50 | 0.516 | 1 | 0.7 | 1 |  |  |  |  |  |  |  | 
3 | 5145_B14 (PGT-127) (antibody) |  |  |  |  |  |  |  |  |  |  | 1.2 | 1.5 | 1.2 | > 50 | 0.022 | > 50 | 0.015 | > 50 | > 50 |  | 
4 | 5345_I01 (PGT-137) (antibody) | 6.23 | > 50 | > 50 | > 50 | > 50 | > 50 | > 50 | > 50 | > 50 | > 50 |  |  |  |  |  |  |  |  |  |  | 
5 | 5343_B08 (PGT-135) (antibody) | 0.964 | > 50 | > 50 | > 50 | 41.9 | > 50 | > 50 | > 50 | > 50 | 2.21 | 0.8 | 1.4 | 0.7 |  |  |  |  |  |  |  | 
6 | 5123_A06 (PGT-125) (antibody) |  |  |  |  |  |  |  |  |  |  | 1.9 | 0.5 | 1.5 | > 50 | 0.015 | > 50 | 0.008 | > 50 | > 50 | 0.0382 | neutralization IC50 [20]: 0.0382 µg/mL; neutralization IC80 [20]: 0.144 µg/mL; neutralization IC90 [20]: 0.339 µg/mL; neutralization IC95 [20]: 0.892 µg/mL
7 | 5141_B17 (PGT-126) (antibody) |  |  |  |  |  |  |  |  |  |  | 1.5 | 0.7 | 1 | > 50 | 0.007 | > 50 | 0.009 | > 50 | > 50 | 0.0093 | 
8 | 5147_N06 (PGT-130) (antibody) | > 50 | > 50 | > 50 | 0.869 | > 50 | > 50 | > 50 | 0.021 | > 50 | 0.061 | 1.3 | 0.8 | 0.8 |  |  |  |  |  |  | 0.0378 | neutralization IC50 [21]: 0.474 µg/mL; neutralization IC80 [21]: > 10 µg/mL; neutralization IC90 [21]: > 10 µg/mL; neutralization IC95 [21]: > 10 µg/mL; neutralization IC50 [22]: > 10 µg/mL; neutralization IC80 [22]: > 10 µg/mL; neutralization IC90 [22]: > 10 µg/mL; neutralization IC95 [22]: > 10 µg/mL
9 | 4877_D15 (PGT-122) (antibody) |  |  |  |  |  |  |  |  |  |  |  |  |  | 19.1 | 0.008 | 0.152 | 0.019 | 3.34 | > 50 | 0.0115 | 
10 | 5114_A19 (PGT-128) (antibody) | 4.54 | 0.051 | 1.21 | 0.011 | > 50 | 4.73 | 0.111 | 0.006 | 1.06 | 0.013 | 0.7 | 1.4 | 0.8 |  |  |  |  |  |  |  | 
11 | 4858_P08 (PGT-123) (antibody) |  |  |  |  |  |  |  |  |  |  | 2 | 1.1 | 0.6 | 42.4 | 0.004 | 0.08 | 0.012 | 0.132 | > 50 | 0.0047 | IC50, pseudovirus neutralization [20]: 0.0047 µg/mL; IC80, pseudovirus neutralization [20]: 0.0175 µg/mL; IC90 (pseudovirus neutralization) [20]: 0.0381 µg/mL; IC95, pseudovirus neutralization [20]: 0.0791 µg/mL
